Results on 3 molecules are retold here after patent US20170114104A1 (KOREA ADVANCED INSTITUTE OF SCIENCE AND TECHNOLOGY, published 2017).

Experiment [1] addresses T1, Biotinylated green fluorescent protein (biotin-GFP) (site-specifically biotinylated in the N-terminal biotinylation peptide (AP, SEQ ID NO: 4) by biotin ligase BirA).
T1 construct: Negatively charged GFP with the N-terminal AP biotinylation peptide
Nature of the experiment: 15 % native-PAGE gel mobility shift, fluorescence of biotin-GFP [a].

For experiment [2], the target named is T1, Biotinylated green fluorescent protein …. Nature of the experiment: native-PAGE off-rate under excess biotin, 37 °C.
The target is the same in experiment [3]. Nature of the experiment: native-PAGE off-rate under excess biotin, 45 °C; reference streptavidin.
Experiment [4] shares this target. In words: native-PAGE off-rate under excess biotin, 45 °C.
The target is the same in experiment [5]. Nature of the experiment: native-PAGE off-rate under excess biotin, 37 °C. The source holds these as a separate data set.
Experiment [6] addresses T2, Biotinylated protein G (biotin-protein G) (site-specifically biotinylated in the N-terminal biotinylation peptide (AP, SEQ ID NO: 4) by BirA; labelled with atto532).
T2 construct: About 12 kDa protein G with the N-terminal AP peptide; also called biotin-protein G-atto532
T2 chain: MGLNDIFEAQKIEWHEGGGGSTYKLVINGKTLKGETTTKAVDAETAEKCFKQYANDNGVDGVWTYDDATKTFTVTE
Nature of the experiment: native-PAGE off-rate under excess biotin, 37 °C.

B1: Monomeric rhizavidin with one mutation (1M: S69R) (designed binder)
chain: FDASNFKDFSSIASASSSWQNQSGSTMIIQVDSFGNVSGQYVNRAQGTGCQNSPYPLTGRVNGTFIAFRVGWNNSTENCNSATGWTGYAQVNGNNTEIVTSWNLAYEGGSGPAIEQGQDTFQYVPTTE
As for B1, the binding result in experiment [1] is recorded as “binds”.

B2: Monodin (MA) (designed binder)
chain: FDASNFKDFSSIASASSSWQNQHGSTMIIQVDSFGNVSGQYVNRAEGTGCQNSPYPLTGRVNGTFIDFSVKWNNSTENCNSNTQWTGYAQVNGNNTEIVTRWNLKYEGGSGPAIWQGQDTFQYVPTTE
notes: Expressed from pET21a and purified on Ni-NTA (His6 tag); also called mRA E115W/S23H/Q46E
By koff is commonly meant the rate constant with which the complex falls apart. A higher koff goes with a short-lived complex. As to B2, in experiment [2], the dissociation half-life came out at 8.3 h. In addition, in experiment [3], the “fold faster off-rate than tetrameric streptavidin” value was determined as 3.4 fold. Moreover, the values for the koff in experiment [4], in experiment [5] and in experiment [6] were 6.4e-05 s⁻¹, 2.3e-05 s⁻¹ and 4.6e-05 s⁻¹, respectively.

B3: Rhizavidin (RA) (other)
chain: FDASNFKDFSSIASASSSWQNQSGSTMIIQVDSFGNVSGQYVNRAQGTGCQNSPYPLTGRVNGTFIAFSVGWNNSTENCNSATGWTGYAQVNGNNTEIVTSWNLAYEGGSGPAIEQGQDTFQYVPTTE
notes: Homodimer; Purified on Ni-NTA; also called dimeric rhizavidin; wild type rhizavidin
The molecule B3 had a dissociation half-life in experiment [2] of 3.8 h. Besides, the koff came to 6e-05 s⁻¹ in experiment [4], 5e-05 s⁻¹ in experiment [5] and 3.2e-05 s⁻¹ in experiment [6].
